Some targets named below: IscU I8K (E. coli, UniProt P0ACD4 1-128, I8K); IscU R15A (E. coli, UniProt P0ACD4 1-128, R15A); IscU Y11A (E. coli, UniProt P0ACD4 1-128, Y11A).
Holding throughout (test): ITC

B1: HscA (natural protein)
chain: MALLQISEPGLSAAPHQRRLAAGIDLGTTNSLVATVRSGQAETLADHEGRHLLPSVVHYQQQGHSVGYDARTNAALDTANTISSVKRLMGRSLADIQQRYPHLPYQFQASENGLPMIETAAGLLNPVRVSADILKALAARATEALAGELDGVVITVPAYFDDAQRQGTKDAARLAGLHVLRLLNEPTAAAIAYGLDSGQEGVIAVYDLGGGTFDISILRLSRGVFEVLATGGDSALGGDDFDHLLADYIREQAGIPDRSDNRVQRELLDAAIAAKIALSDADSVTVNVAGWQGEISREQFNELIAPLVKRTLLACRRALKDAGVEADEVLEVVMVGGSTRVPLVRERVGEFFGRPPLTSIDPDKVVAIGAAIQADILVGNKPDSEMLLLDVIPLSLGLETMGGLVEKVIPRNTTIPVARAQDFTTFKDGQTAMSIHVMQGERELVQDCRSLARFALRGIPALPAGGAHIRVTFQVDADGLLSVTAMEKSTGVEASIQVKPSYGLTDSEIASMIKDSMSYAEQDVKARMLAEQKVEAARVLESLHGALAADAALLSAAERQVIDDAAAHLSEVAQGDDVDAIEQAIKNVDKQTQDFAARRMDQSVRRALKGHSVDEV
Take B1: the Kd with IscU I8K was 18.2 µM; in the experiment with IscU R15A it was 2400 nM; with IscU Y11A it was 2700 nM.

Broadly, the Kd is the free concentration of one partner at which half of the binding sites on the other are occupied at equilibrium, for simple one-to-one binding. Lower therefore signals a tighter complex.
